According to patent US20170009278A1 (NAVINCI DIAGNOSTICS, published 2017):

Biological target: T1, β catenin (UniProt P35222 2-781)
T1 construct: Detected with antibody Sc7199 (Santa-Cruz)
T1 sequence (looked up): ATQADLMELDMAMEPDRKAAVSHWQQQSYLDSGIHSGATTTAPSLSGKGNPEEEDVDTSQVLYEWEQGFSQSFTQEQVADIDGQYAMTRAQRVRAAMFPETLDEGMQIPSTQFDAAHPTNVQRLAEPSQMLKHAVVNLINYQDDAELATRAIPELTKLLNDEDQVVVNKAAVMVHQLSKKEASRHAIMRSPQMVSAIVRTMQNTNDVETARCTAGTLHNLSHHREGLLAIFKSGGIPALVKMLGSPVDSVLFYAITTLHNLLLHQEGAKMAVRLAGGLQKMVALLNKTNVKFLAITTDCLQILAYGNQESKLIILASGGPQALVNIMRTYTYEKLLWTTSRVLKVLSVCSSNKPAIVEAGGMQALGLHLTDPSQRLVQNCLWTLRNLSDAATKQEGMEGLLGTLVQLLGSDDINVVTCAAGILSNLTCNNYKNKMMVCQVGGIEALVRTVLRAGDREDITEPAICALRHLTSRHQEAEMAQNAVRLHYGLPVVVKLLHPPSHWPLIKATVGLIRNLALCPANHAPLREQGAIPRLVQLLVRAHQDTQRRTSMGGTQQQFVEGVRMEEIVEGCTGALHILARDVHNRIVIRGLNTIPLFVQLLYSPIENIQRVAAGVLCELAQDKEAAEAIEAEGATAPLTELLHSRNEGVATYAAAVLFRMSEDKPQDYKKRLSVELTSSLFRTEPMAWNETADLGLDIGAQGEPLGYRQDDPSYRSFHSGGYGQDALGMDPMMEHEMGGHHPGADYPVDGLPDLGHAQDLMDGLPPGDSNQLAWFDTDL
Assay: in situ prox-HCR and in situ PLA on DLD1 cells and colon tissue
Experimental: For in situ PLA experiments the DuoLink kit (Olink Bioscience) was used according to manufacturer recommendations. Briefly DLD1 cells were rehydrated and permeabilized as described for prox-HCR. […] Cells were washed with DuoLink Wash buffer A two time for 5 min and incubated with proximity probes (PLUS and MINUS, Olink Bioscience) in antibody diluent (Olink Bioscience) for 1 h at 37° C. After a new round of washing steps ligation mix was applied to the cells and incubated for 30 min at 37° C. Additional washing was followed by RCA and fluorescent detection of the rolling circle products. Cells were counterstained with Hoechst and mounted as described above.
Fresh frozen healthy colon tissue was fixed using 3.7% formaldehyde solution at RT for 15 min. Slides were washed with PBS twice and then blocked using Duolink blocking reagent for 60 min at 37° C. […] The next day the slides were washed with PBS 3×2 min and blocked again for 30 min. The slides were incubated with proximity-probes directed against mouse and rabbit IgG for 1 h at 37° C. in HCR buffer. After two more washes with HCR buffer the slides were incubated with activator oligonucleotides for 30 min at 37° C. Slides were washed again twice with HCR buffer and slides were incubated with 20 nM HCR hairpins in HCR buffer for 1 h at 37° C. […]

- binding result: binds
B1: E-cadherin (receptor, UniProt P12830 155-882, looked up)
chain: DWVIPPISCPENEKGPFPKNLVQIKSNKDKEGKVFYSITGQGADTPPVGVFIIERETGWLKVTEPLDRERIATYTLFSHAVSSNGNAVEDPMEILITVTDQNDNKPEFTQEVFKGSVMEGALPGTSVMEVTATDADDDVNTYNAAIAYTILSQDPELPDKNMFTINRNTGVISVVTTGLDRESFPTYTLVVQAADLQGEGLSTTATAVITVTDTNDNPPIFNPTTYKGQVPENEANVVITTLKVTDADAPNTPAWEAVYTILNDDGGQFVVTTNPVNNDGILKTAKGLDFEAKQQYILHVAVTNVVPFEVSLTTSTATVTVDVLDVNEAPIFVPPEKRVEVSEDFGVGQEITSYTAQEPDTFMEQKITYRIWRDTANWLEINPDTGAISTRAELDREDFEHVKNSTYTALIIATDNGSPVATGTGTLLLILSDVNDNAPIPEPRTIFFCERNPKPQVINIIDADLPPNTSPFTAELTHGASANWTIQYNDPTQESIILKPKMALEVGDYKINLKLMDNQNKDQVTTLEVSVCDCEGAAGVCRKAQPVEAGLQIPAILGILGGILALLILILLLLLFLRRRAVVKEPLLPPEDDTRDNVYYYDEEGGGEEDQDFDLSQLHRGLDARPEVTRNDVAPTLMSVPRYLPRPANPDEIGNFIDENLKAADTDPTAPPYDSLLVFDYEGSGSEAASLSSLNSSESDKDQDYDYLNEWGNRFKKLADMYGGGEDD
notes: whole, on cells; Detected with antibody 610182 (BD Biosciences)
